From US20020102651A1 (Dana-Farber, published 2002) come the findings set out here.

In this test the target is T1, human B7-4M (B7-4 membrane form), expressed on transfected COS or CHO cells (human, UniProt Q9NZQ7 19-290).
T1 construct: also called 292
Description: FACS on B7-4M-transfected COS cells. The method, then:
COS cells were transfected with either vector DNA (pCDNAI), or an expression plasmid containing the B7-4M cDNA. After 72 hours, the tansfected COS cells were detached by incubation in PBS containing 0.5 mM EDTA for 30 min. at 37° C.
The ability of COS cells expressing B7-4M to bind to various T cell ligands and antibodies was tested. […] The ability of COS cells expressing B7-4M to bind to IgG and murine ICOS-his fusion protein was also tested. No binding of human B7-4 to murine ICOS was detected (FIG. 9).

T1 sequence (Q9NZQ7 19-290): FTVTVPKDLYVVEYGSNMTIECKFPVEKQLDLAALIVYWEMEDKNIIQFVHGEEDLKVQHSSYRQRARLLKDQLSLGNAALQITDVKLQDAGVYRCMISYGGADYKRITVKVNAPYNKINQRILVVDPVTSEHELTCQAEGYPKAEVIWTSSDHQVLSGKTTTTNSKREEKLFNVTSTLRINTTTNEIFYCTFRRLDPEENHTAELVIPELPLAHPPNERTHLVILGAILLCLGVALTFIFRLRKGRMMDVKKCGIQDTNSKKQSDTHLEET

B1: murine ICOS-his fusion protein (receptor, mouse, UniProt Q9WVS0 21-144, looked up)
chain: EINGSADHRMFSFHNGGVQISCKYPETVQQLKMRLFREREVLCELTKTKGSGNAVSIKNPMLCLYHLSNNSVSFFLNNPDSSQGSYYFCSLSIFDPPPFQERNLSGGYLHIYESQLCCQLKLWL
notes: not shown: his tag
On to B1, for which the binding result is reported as “no binding”.
